Source: article PMC4298044

What was measured:
[1] = target: APP solubilized from human brain membranes (human (endogenous in brain frontal cortex)) (UniProt P05067); assay: native gel or EMSA; blue native-PAGE, NativePAGE Novex 4-16% Bis-Tris gels, samples with G-250 additive and dodecylmaltoside; brain membrane extracts and CSF; immunoblot with anti-APP antibodies
[2] = target: APP solubilized from human brain membranes (human (endogenous in brain frontal cortex)) (UniProt P05067); assay: sucrose density gradient ultracentrifugation; continuous 5-20% sucrose gradient, 0.15 M NaCl, 50 mM MgCl2, 0.5% Brij 97, 50 mM Tris-HCl pH 7.4; 250,000 x g, 4 hr, 4°C; fractions immunoblotted; markers β-galactosidase, catalase, alkaline phosphatase
[3] = target: soluble full-length APP (sAPPf) (human (endogenous in CSF)) (UniProt P05067); assay: co-IP + ELISA; CSF of AD and NDC subjects measured by sandwich ELISA (IBL sAPPα, IBL sAPPβ, or Novex kit that detects sAPPf and sAPPα) before and after immunoprecipitation with Sigma-Ct or IBL-β; read-out is the loss from the sample
[4] = target: sAPPβ (sAPP fragment generated after β-secretase cleavage) (human (endogenous in CSF)); assay: as above

## APP solubilized from human brain membranes (from UniProt P05067 18-770) (natural protein)
[1]
  stoichiometry N: 2
[2]
  stoichiometry N: 2

## sAPPα (sAPP fragment generated after α-secretase cleavage) (domain or fragment)
[3]
  percent decrease of the ELISA level after immunoprecipitation of sAPPf (Sigma-Ct): 33%

## sAPPβ (sAPP fragment generated after β-secretase cleavage) (domain or fragment)
[3]
  percent decrease of the ELISA level after immunoprecipitation of sAPPf (Sigma-Ct): 27%

## soluble full-length APP (sAPPf) (from UniProt P05067 18-770) (natural protein)
[4]
  percent decrease of the ELISA level of sAPPf plus sAPPα after immunoprecipitation of sAPPβ (IBL-β): 89%
